{
  "source": "the RNAGym collection of RNA variant scans (doi:10.1073/pnas.2313332121)",
  "parents": {"B1": {"name": "TPR t1 (parent)", "chain": "GACCAAUCUGCCCUCAGAGCUCGAGAACAUCUUCGGAUGCAGAGGAGGCAGGCUUCGGUGGCGCGAUAGCGCCAACGUCCUCAACCUCCAAUGCAUCCCACCACAUGAUGAUGCCUGAAGAGCCUUGGUUUUUUG"}},
  "data": [
    {"variants_of": "B1", "assay": "polymerase ribozyme fitness, log enrichment relative to wild type (log ratio); higher = more active; in vitro selection for triplet polymerase activity", "procedure,_shortened": "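Both subunits of a heterodimeric triplet polymerase ribozyme were given their own mutant library, built by PCR and transcribed. Each library was annealed with a biotinylated primer, the partner subunit and triplets, incubated frozen at −7 °C, and its extended constructs gel-excised, captured on streptavidin beads and amplified by RT-PCR, all in one round done in triplicate. Fitness is the logarithm of genotype enrichment relative to wild-type enrichment, with replicates averaged by inverse-variance weighting. That logarithm is base 2, and Illumina-sequenced genotypes needed ≥10 input reads and ≥1 read per output.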", "values": [
      {"variant": "GACCAAUCUGCCCUCAGAGCUCGAGAACAUCUUCGAAUGCAGAGGAGGCAGGCUUCGGUGGCGCGAUAGCGACAACGUCCUCAACCUCCAAUGCAUUCCACCACAUGAUGAUGCCUGAAGAGCCUUGGUUUUUUG", "note": "[G36A C72A C97U]", "polymerase ribozyme fitness (log ratio)": 0.549},
      {"variant": "GACCAAUCUGCCCUCAGAGCUCGAGAACAUCUUCGAAUGCAGAGGAGGCAGGCUUCGGUGGCGCGAUAGCUCCAACGUCCUCAACCUCCAAUGCAUCCCACCACAAGAUGAUGCCUGAAGAGCCUUGGUUUUUUG", "note": "[G36A G71U U106A]", "polymerase ribozyme fitness (log ratio)": -1.11},
      {"variant": "GACCAAUCUGCCCUCAGAGCUCGAGAACAUCUUCGAAUGCAGAGGAGGCAGGCUUCGGUGGCGCGAUAGUGCCAAAGUCCUCAAUCUCCAAUGCAUCCCACCACAUGAUGAUGCCUGAAGAGCCUUGGUUUUUUG", "note": "[G36A C70U C76A C85U]", "polymerase ribozyme fitness (log ratio)": -3.99},
      {"variant": "GACCAAUCUGCCCUCAGAGCUCGAGAACAUCUUCGAAUGCAGAGGAGGCAGGCUUCGGUGGCGCGAUAGCGCCAACGUCCUCAACCUCCAAUGCAUCCCACCACAUGAUUAUGCCUGAAGUGCCUUGGUUUUUUG", "note": "[G36A G110U A121U]", "polymerase ribozyme fitness (log ratio)": -2.05},
      {"variant": "GACCAAUCUGCCCUCAGAGCUCGAGAACAUCUUCGAAUGCAGAGGAGGCAGGCUUCGGUGGAGCGAUAGCGCCAACGUCCUCAACCUCUAAUGCCUCCCACCACAUGAUGAUGUCUGAAGAGCCUUGGUUUUUUG", "note": "[G36A C62A C89U A95C C114U]", "polymerase ribozyme fitness (log ratio)": -6.66},
      {"variant": "GACCAAUCUGCCCUCAGAGCUCGAGAACAUCUUCGAAUGCAGAGGUCGCAGGCUUUGGUGGCGCGAUAGCGCCAACGUCCUCAACCUCCAAUGCAUCCCACCACAAGAUGAUGCCUGAAGAGCCUUGGUUUUUUG", "note": "[G36A A46U G47C C56U U106A]", "polymerase ribozyme fitness (log ratio)": -3.75},
      {"variant": "GACCAAUCUGCCCUCAGAGCUCGAGAACAUCUUCGCAUGCAGAGGAGGCCGACUUCGGUGGCGCGAUAGCGCCAACGUCCUCAACCUCCAAUGCAUCCCACCACAUGAUGAUGCCUGAAGAGCCUUGGUUUUUUG", "note": "[G36C A50C G52A]", "polymerase ribozyme fitness (log ratio)": -4.73},
      {"variant": "GACCAAUCUGCCCUCAGAGCUCGAGAACAUCUUCGAAUGCAGAGGAGGCAGGCUUCGGUGGCGCGUUAGCGCCAACGUCCUCAACCUACAAUGCAUCCCACCAGAUGAUGAUACCUGAAGAGGAUUGGUUUUUUG", "note": "[G36A A66U C88A C104G G113A C123G C124A]", "polymerase ribozyme fitness (log ratio)": -5.59},
      {"variant": "GACCAAUCUGCCCUCAGAGCUCGAGAACAUCUUCGAAUGCAGAGGAGGCAGGCUUCGGUGGCGCGAUAGCGUCAACGUCCUCAAGCUCUAAUGUAUCCCACCACAUGAUGAUGCCUGAAGAGCCUUGGUUUUUUG", "note": "[G36A C72U C85G C89U C94U]", "polymerase ribozyme fitness (log ratio)": -2.78},
      {"variant": "GACCAAUCUGCCCUCAGAGCUCGAGAACAUCUUCGAAUGCAGAUGAGGCAGGCUUCGGUGGCGCGAUAGCGACAACGUCCUCAACCUACAAUGCAUCCCACCACAGGAUGAUCCCUGAAGAGCCUUGGUUUUUUG", "note": "[G36A G44U C72A C88A U106G G113C]", "polymerase ribozyme fitness (log ratio)": -5.9},
      {"variant": "GACCAAUCUGCCCUCAGAGCUCGAGAACAUCUUCGAAUGCAGAGGAGGCAGGCUUCGGUGGCGCGAUAGCGCCAACGUCCUCAACCUCUAAUGGAUCCCACCACAUGAUGAUGUCUGAAGAGCCUUGGUUUUUUG", "note": "[G36A C89U C94G C114U]", "polymerase ribozyme fitness (log ratio)": -5.66},
      {"variant": "GACCAAUCUGCCCUCAGAGCUCGAGAACAUCUUCGAAUGCAGAGGAGGCAGGCUUCGGUGGCGCGAUAACGCAAACGUCCUCAACCUCCAAUGCAUCCCACCACAUGAUGAUGCCUGAAGAACCUUGGUUUUUUG", "note": "[G36A G69A C73A G122A]", "polymerase ribozyme fitness (log ratio)": -4.15},
      {"variant": "GACCAAUCUGCCCUCAGAGCUCGAGAACAUCUUCGAAUGCAGAGCAGGCAGGCUUCGGUGGCGCGAUAGCGCCAACGUCCUCAACCUCCAAUGCAUCCCACCACAUGAUGAUGACUGAAGAGCCUUGGUUUUUUG", "note": "[G36A G45C C114A]", "polymerase ribozyme fitness (log ratio)": -3.75},
      {"variant": "GACCAAUCUGCCCUCAGAGCUCGAGAACAUCUUCGAAUGCAGAGGAGGCAGGCUUCGGUGGUGCGAUAGCGUCAACGUCCUCAACCUCCAAUGCAUCCCACCACAUGAUGAUGCCUGAAGAGCCUUGGUUUUUUG", "note": "[G36A C62U C72U]", "polymerase ribozyme fitness (log ratio)": -0.886},
      {"variant": "GACCAAUCUGCCCUCAGAGCUCGAGAACAUCUUCGAAUGCAGAGGAGUCAGGCUUUGGUGGCGCGAUAGCGCCAACGUCCUCAACCUCCAAUGCAUCCCACCACAUGAUGAAGCCUUAAUAGCCUUCGUUUUAUG", "note": "[G36A G48U C56U U112A G117U G120U G127C U133A]", "polymerase ribozyme fitness (log ratio)": -6.88},
      {"variant": "GACCAAUCUGCCCUCAGAGCUCGAGAACAUCUUCGAAUGCAGAGGAGGCAGGCUUCGGUGGCGCGAUAGCGCCAACGUCCUCAACCUCCAAUGCAUCCCACCACAUGAUGAUGCCUGAAGAGACUUGGUUUUUUG", "note": "[G36A C123A]", "polymerase ribozyme fitness (log ratio)": 0.117},
      {"variant": "GACCAAUCUGCCCUCAGAGCUCGAGAACAUCUUCGAAUGCAGAGGAGGCAGGCGUCGGUGGCGCGAUAGCGCCAACGUCCUCAACCUCCAAUGCAUCCCACCACAUGAUGAUGCCUGAAGAGCCUUGGUUUUUUG", "note": "[G36A U54G]", "polymerase ribozyme fitness (log ratio)": -1.04},
      {"variant": "GACCAAUCUGCCCUCAGAGCUCGAGAACAUCUUCGAAUGCAGAGGAGGGAGGCUUCGGUGGCGCGAUAGCGCCAACGUCCUCAACCUCCAAUACGUCCCACCACAUGAUGAUGCCUGAAGAGCCUUGGUUUUUUG", "note": "[G36A C49G G93A A95G]", "polymerase ribozyme fitness (log ratio)": -3.09},
      {"variant": "GACCAAUCUGCCCUCAGAGCUCGAGAACAUCUUCGAAUGCAGAAGAGGCAGGCUUCGGUGGCGCGAUAGCGCGAACGUUCUCAACCUCCAAUGCAUCCCACCACAUGAUGAUGCCGGAAGAGCCUUGGUUUUUUG", "note": "[G36A G44A C73G C79U U116G]", "polymerase ribozyme fitness (log ratio)": -5.21},
      {"variant": "GACCAAUCUGCCCUCAGAGCUCGAGAACAUCUUCGAAUGCAGAGGAGGCAGGCUUCGGAGGCGCGAUAGCGCCAACGUCCUCAACCUCCAAUGCAUCCCACCACAUGAUGAUGCCUGAAGAGCCUUGGUUUUUUG", "note": "[G36A U59A]", "polymerase ribozyme fitness (log ratio)": -0.196},
      {"variant": "GACCAAUCUGCCCUCAGAGCUCGAGAACAUCUUCGAAUGCAGAGGAGGCAGGCUUCGGUGGCGCGAUAGCGCCAACGUCCACAACCUCCAAUGCAUCCCACCACAUGAUGAUGCCUGAAGAGCCAUGGUUUUUUG", "note": "[G36A U81A U125A]", "polymerase ribozyme fitness (log ratio)": -2.6}
    ]}
  ]
}
